# From patent US20020103123A1, “Methods of modifying feeding behavior, compounds useful in such methods, and DNA encoding a hypothalamic atypical neuropeptide Y/peptide YY receptor (Y5)” (Synaptic Pharmaceutical Corporation, published 2002)
# Ends that are not written are not given here.
# Molecular target: T1, rat hypothalamic Y5 receptor (rat)
# T1 chain: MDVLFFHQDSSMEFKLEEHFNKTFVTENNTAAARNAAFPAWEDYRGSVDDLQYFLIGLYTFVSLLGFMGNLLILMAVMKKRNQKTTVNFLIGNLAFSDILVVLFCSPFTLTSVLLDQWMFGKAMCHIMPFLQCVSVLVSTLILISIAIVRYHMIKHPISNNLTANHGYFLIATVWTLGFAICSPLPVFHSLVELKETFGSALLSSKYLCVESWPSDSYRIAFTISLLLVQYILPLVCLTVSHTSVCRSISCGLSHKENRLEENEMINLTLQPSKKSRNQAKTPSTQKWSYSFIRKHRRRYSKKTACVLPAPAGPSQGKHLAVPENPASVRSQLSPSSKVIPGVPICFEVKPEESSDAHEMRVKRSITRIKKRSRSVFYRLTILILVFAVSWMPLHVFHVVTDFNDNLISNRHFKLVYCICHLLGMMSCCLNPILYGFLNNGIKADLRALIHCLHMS
# Experiment: 125I-PYY displacement, COS-7 membranes
row,Binder,Ki
1,APLEPMYPGDYATHEQRAQYETQLRRYINTLTRPRY [rat PP],180 nM
2,APLEPVYPGDNATPEQMAQYAADLRRYINMLTRPRY [human PP],5 nM

# Molecular target: T2, human Y1 receptor (human, UniProt P25929)
# Experiment: 125I-PYY displacement, COS-7 membranes
# Protocol: (§1) Peptides were tested at concentrations ranging from 0.001 nM to 1000 nM unless noted. IC₅₀ values corresponding to 50% displacement were determined by nonlinear regression analysis and converted to Kᵢ values according to the Cheng-Prusoff equation.
row,Binder,Ki
1,HYINLITRQRY (ends and bridges not checked) [porcine NPY26-36],> 1000 nM
2,APLEPMYPGDYATHEQRAQYETQLRRYINTLTRPRY [rat PP],450 nM

# Molecular target: T3, human Y2 receptor (human, UniProt P49146)
# T3 sequence: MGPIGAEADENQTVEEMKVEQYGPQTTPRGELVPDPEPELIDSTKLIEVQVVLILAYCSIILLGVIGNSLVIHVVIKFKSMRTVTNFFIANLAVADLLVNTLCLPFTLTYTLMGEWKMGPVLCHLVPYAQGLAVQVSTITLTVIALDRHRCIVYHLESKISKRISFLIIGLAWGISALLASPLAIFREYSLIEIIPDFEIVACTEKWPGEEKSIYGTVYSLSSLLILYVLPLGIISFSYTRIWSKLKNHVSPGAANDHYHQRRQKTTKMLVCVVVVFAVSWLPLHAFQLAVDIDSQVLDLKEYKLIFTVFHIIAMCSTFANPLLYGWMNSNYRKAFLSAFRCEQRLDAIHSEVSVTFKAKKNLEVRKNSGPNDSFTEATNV
# Experiment: 125I-PYY displacement, COS-7 membranes
# Protocol: as §1
row,Binder,Ki
1,HYINLITRQRY (ends and bridges not checked) [porcine NPY26-36],380 nM
2,APLEPMYPGDYATHEQRAQYETQLRRYINTLTRPRY [rat PP],> 1000 nM

# Molecular target: T4, human Y4 receptor (human, UniProt P50391)
# Experiment: 125I-PYY displacement, COS-7 membranes
# Protocol: as §1
row,Binder,Ki
1,APLEPMYPGDYATHEQRAQYETQLRRYINTLTRPRY [rat PP],0.16 nM
2,TPEQMAQYAADLRRYINMLTRPRY [human PP13-36],39 nM

# Molecular target: T1, rat hypothalamic Y5 receptor
# Experiment: 125I-PYY displacement, COS-7 membranes
# Remark: another data set of the same source
# Protocol: (§2) Peptides were tested at concentrations ranging from 0.001 nM to 1000 nM. IC₅₀ values corresponding to 50% displacement were determined by nonlinear regression analysis and converted to Kᵢ values according to the Cheng-Prusoff equation. […] Exception: new peptides (marked with a double asterisk) were tested in one or more independent experiments.
row,Binder,Ki
1,FLRF-NH2 [FLRF-amide],5500 nM
2,YPSKPDNPGEDAPAEDMARYYSAL-NH2 [human NPY1-24 amide],> 1000 nM
3,ARYYSALRHYINLITRQRY (ends and bridges not checked) [porcine NPY18-36],> 1000 nM
4,APLEPMYPGDYATHEQRAQYETQLRRYINTLTRPRY [rat PP],230 nM
5,YYSALRHYINLITRQRY (ends and bridges not checked) [porcine NPY20-36],> 100 nM
6,PLEPVY-OH [human PP31-36 free acid],> 10000 nM
7,TPEQMAQYAADLRRYINMLTRPRY [human PP13-36],84 nM
8,SALRHYINLITRQRY (ends and bridges not checked) [porcine NPY22-36],> 1000 nM
9,PLEPVY [human PP31-36],> 1000 nM
10,APLEPVYPGDNATPEQMAQYAADLRRYINMLTRPRY [human PP],5 nM
11,APLEPEYPGDNATPEQMAQYAAELRRYINMLTRPRY [bovine PP],8.4 nM
12,DLARYYSALRHYINLITRQRY (ends and bridges not checked) [porcine NPY16-36],260 nM

# Molecular target: rat Y1 receptor (rat, UniProt P21555)
# Experiment: 125I-PYY displacement, COS-7 membranes
# Protocol: as §2
row,Binder,Ki
1,HYINLITRQRY (ends and bridges not checked) [porcine NPY26-36],> 1000 nM
2,FLRF-NH2 [FLRF-amide],45000 nM
3,SPEELNRYYASLRHYLNLVTRQRY [human PYY13-36],130 nM
4,TPEQMAQYAADLRRYINMLTRPRY [human PP13-36],> 1000 nM
5,SALRHYINLITRQRY (ends and bridges not checked) [porcine NPY22-36],> 1000 nM
6,PAEDLARYYSALRHYINLITRQRY (ends and bridges not checked) [porcine NPY13-36],190 nM
7,PLEPVY [human PP31-36],> 10000 nM
8,APLEPEYPGDNATPEQMAQYAAELRRYINMLTRPRY [bovine PP],120 nM
9,DLARYYSALRHYINLITRQRY (ends and bridges not checked) [porcine NPY16-36],140 nM

# Molecular target: T5, rat Y2 receptor (rat, UniProt Q9ERC0)
# T5 sequence: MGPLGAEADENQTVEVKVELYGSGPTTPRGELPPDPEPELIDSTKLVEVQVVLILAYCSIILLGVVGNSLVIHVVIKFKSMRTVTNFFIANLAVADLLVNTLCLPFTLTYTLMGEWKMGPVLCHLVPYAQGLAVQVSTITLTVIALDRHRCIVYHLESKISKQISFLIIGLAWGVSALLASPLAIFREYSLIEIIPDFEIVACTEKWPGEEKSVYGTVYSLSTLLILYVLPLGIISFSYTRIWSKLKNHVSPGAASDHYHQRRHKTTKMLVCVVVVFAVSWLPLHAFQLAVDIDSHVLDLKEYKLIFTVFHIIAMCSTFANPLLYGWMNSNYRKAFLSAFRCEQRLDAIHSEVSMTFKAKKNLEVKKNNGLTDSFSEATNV
# Experiment: 125I-PYY displacement, COS-7 membranes
# Protocol: as §2
row,Binder,Ki
1,APLEPMYPGDYATHEQRAQYETQLRRYINTLTRPRY [rat PP],> 1000 nM
2,TPEQMAQYAADLRRYINMLTRPRY [human PP13-36],> 650 nM
3,SALRHYINLITRQRY (ends and bridges not checked) [porcine NPY22-36],54 nM
4,PAEDLARYYSALRHYINLITRQRY (ends and bridges not checked) [porcine NPY13-36],31 nM
5,PLEPVY [human PP31-36],> 10000 nM
6,APLEPVYPGDNATPEQMAQYAADLRRYINMLTRPRY [human PP],> 1000 nM
7,APLEPEYPGDNATPEQMAQYAAELRRYINMLTRPRY [bovine PP],> 1000 nM
8,DLARYYSALRHYINLITRQRY (ends and bridges not checked) [porcine NPY16-36],35 nM

# Molecular target: rat Y4 receptor (rat, UniProt Q63447)
# Experiment: 125I-PYY displacement, COS-7 membranes
# Protocol: as §2
row,Binder,Ki
1,PLEPVY-OH [human PP31-36 free acid],> 100 nM
2,PLEPVY [human PP31-36],26 nM
3,APLEPVYPGDNATPEQMAQYAADLRRYINMLTRPRY [human PP],0.04 nM
4,DLARYYSALRHYINLITRQRY (ends and bridges not checked) [porcine NPY16-36],200 nM

# Molecular target: T1, rat hypothalamic Y5 receptor
# Experiment: 125I-PYY displacement, COS-7 membranes
# Remark: another data set of the same source
# Protocol: (§3) Peptides were tested at concentrations ranging from 0.001 nM to 1000 nM. IC₅₀ values corresponding to 50% displacement were determined by nonlinear regression analysis and converted to Kᵢ values according to the Cheng-Prusoff equation.
row,Binder,Ki
1,ARYYSALRHYINLITRQRY (ends and bridges not checked) [porcine NPY18-36],> 1000 nM
2,APLEPMYPGDYATHEQRAQYETQLRRYINTLTRPRY [rat PP],230 nM
3,TPEQMAQYAADLRRYINMLTRPRY [human PP13-36],290 nM
4,SALRHYINLITRQRY (ends and bridges not checked) [porcine NPY22-36],> 1000 nM
5,PLEPVY [human PP31-36],> 10000 nM
6,APLEPVYPGDNATPEQMAQYAADLRRYINMLTRPRY [human PP],5 nM
7,APLEPEYPGDNATPEQMAQYAAELRRYINMLTRPRY [bovine PP],8.4 nM
8,DLARYYSALRHYINLITRQRY (ends and bridges not checked) [porcine NPY16-36],260 nM

# Molecular target: T6, human hippocampal Y5 receptor (human)
# T6 chain: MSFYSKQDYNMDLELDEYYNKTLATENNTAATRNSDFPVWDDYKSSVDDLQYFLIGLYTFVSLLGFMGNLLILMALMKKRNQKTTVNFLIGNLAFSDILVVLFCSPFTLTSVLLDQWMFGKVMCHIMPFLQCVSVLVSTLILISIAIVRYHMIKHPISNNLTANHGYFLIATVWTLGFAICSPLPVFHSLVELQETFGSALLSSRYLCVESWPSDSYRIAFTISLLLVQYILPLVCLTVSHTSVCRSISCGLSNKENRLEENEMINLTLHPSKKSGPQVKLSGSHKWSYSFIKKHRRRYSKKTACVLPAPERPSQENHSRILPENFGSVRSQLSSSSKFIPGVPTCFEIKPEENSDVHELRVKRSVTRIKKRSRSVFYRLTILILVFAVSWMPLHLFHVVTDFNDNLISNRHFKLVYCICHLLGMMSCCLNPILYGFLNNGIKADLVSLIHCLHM
# Experiment: 125I-PYY displacement, COS-7 membranes
# Protocol: as §3
row,Binder,Ki
1,PLEPVYPGDNATPEQMAQYAADLRRYINMLTRPRY [human PP2-36],2.1 nM
2,ARYYSALRHYINLITRQRY (ends and bridges not checked) [porcine NPY18-36],> 470 nM
3,APLEPMYPGDYATHEQRAQYETQLRRYINTLTRPRY [rat PP],630 nM
4,TPEQMAQYAADLRRYINMLTRPRY [human PP13-36],720 nM
5,SALRHYINLITRQRY (ends and bridges not checked) [porcine NPY22-36],> 1000 nM
6,PLEPVY [human PP31-36],> 10000 nM
7,APLEPEYPGDNATPEQMAQYAAELRRYINMLTRPRY [bovine PP],1.6 nM
8,DLARYYSALRHYINLITRQRY (ends and bridges not checked) [porcine NPY16-36],300 nM

# Molecular target: T6, human hippocampal Y5 receptor
# Experiment: 125I-PYY displacement, COS-7 membranes
# Remark: another data set of the same source
# Protocol: as §1
row,Binder,Ki
1,PLEPVYPGDNATPEQMAQYAADLRRYINMLTRPRY [human PP2-36],2.1 nM
2,APLEPMYPGDYATHEQRAQYETQLRRYINTLTRPRY [rat PP],630 nM
3,TPEQMAQYAADLRRYINMLTRPRY [human PP13-36],720 nM

# Molecular target: T2, human Y1 receptor
# Experiment: 125I-PYY displacement, COS-7 membranes
# Remark: another data set of the same source
# Protocol: as §1
row,Binder,Ki
1,HYINLITRQRY (ends and bridges not checked) [porcine NPY26-36],> 1000 nM
2,APLEPMYPGDYATHEQRAQYETQLRRYINTLTRPRY [rat PP],450 nM

# Molecular target: T3, human Y2 receptor
# Experiment: 125I-PYY displacement, COS-7 membranes
# Remark: another data set of the same source
# Protocol: as §1
row,Binder,Ki
1,HYINLITRQRY (ends and bridges not checked) [porcine NPY26-36],380 nM
2,APLEPMYPGDYATHEQRAQYETQLRRYINTLTRPRY [rat PP],> 1000 nM

# Molecular target: T4, human Y4 receptor
# Experiment: 125I-PYY displacement, COS-7 membranes
# Remark: another data set of the same source
# Protocol: as §1
row,Binder,Ki
1,APLEPMYPGDYATHEQRAQYETQLRRYINTLTRPRY [rat PP],0.16 nM
2,TPEQMAQYAADLRRYINMLTRPRY [human PP13-36],39 nM

# Molecular target: T6, human hippocampal Y5 receptor
# Experiment: 125I-PYY displacement, LM(tk-) membranes
# Protocol: as §3
row,Binder,Ki
1,APLEPVYPGDNATPEQMAQYAADLRRYINMLTRPRY [human PP],3 nM
2,APLEPEYPGDNATPEQMAQYAAELRRYINMLTRPRY [bovine PP],7.9 nM

# Molecular target: T6, human hippocampal Y5 receptor
# Experiment: 125I-PYY3-36 displacement, LM(tk-) membranes
# Protocol: as §3
row,Binder,Ki
1,APLEPMYPGDYATHEQRAQYETQLRRYINTLTRPRY [rat PP],130 nM
2,PLEPVY [human PP31-36],41000 nM
3,APLEPEYPGDNATPEQMAQYAAELRRYINMLTRPRY [bovine PP],5 nM
4,DLARYYSALRHYINLITRQRY (ends and bridges not checked) [porcine NPY16-36],180 nM

# Molecular target: T2, human Y1 receptor
# Experiment: 125I-PYY displacement, COS-7 membranes; tested only up to 100 nM
row,Binder,Ki
1,TPEQMAQYAADLRRYINMLTRPRY [human PP13-36],> 100 nM

# Molecular target: T3, human Y2 receptor
# Experiment: as above
row,Binder,Ki
1,TPEQMAQYAADLRRYINMLTRPRY [human PP13-36],> 100 nM

# Molecular target: T2, human Y1 receptor
# Experiment: as above
# Remark: another data set of the same source
row,Binder,Ki
1,TPEQMAQYAADLRRYINMLTRPRY [human PP13-36],> 100 nM

# Molecular target: T3, human Y2 receptor
# Experiment: as above
# Remark: another data set of the same source
row,Binder,Ki
1,TPEQMAQYAADLRRYINMLTRPRY [human PP13-36],> 100 nM
